Data on six molecules can be found in publication PMC5179029, “Selection and Characterization of Tau Binding ᴅ-Enantiomeric Peptides with Potential for Therapy of Alzheimer Disease” (PLoS ONE, 2016).

The subject of data set [1] is inducible N2aTau^4RDΔK280 cells. Kind of data set: Penetration of FAM-labeled peptides into cells (confocal microscopy). It counts as cell-based. Further details: key to Cell penetration: membrane, 2 hours incubation / Cell penetration: membrane, 4 days incubation / Cell penetration: cytosol, 4 days incubation / Cell penetration: cytosol, 2 hours incubation / Cell penetration: nuclei, 4 days incubation / Cell penetration: nuclei, 2 hours incubation: +: Cell compartments where fluorescence of the label was detected are summarized here. How it is done:
The peptides were obtained with a 6-Carboxyfluorescein (FAM) label, linked via a C-terminal lysine, to assay their ability to enter N2a cells expressing a variant of tau protein (construct tau^4RDΔK280, derived from the 4-repeat domain) in a regulatable fashion. The cells were incubated in the presence of the peptides for two hours (short term uptake) and four days (long term uptake and stability) at concentrations of 60 μM. After incubation the cells were fixed on glass cover slips and monitored by a confocal microscope (Fluoview 1000, Olympus). The localizations of the D-peptides were detected by their FAM-label (excitation: 488 nm, emission: 520 nm). In addition, cell nuclei were stained with TOPRO3 dye (excitation: 633 nm, emission: 660–670 nm). Representative pictures were taken with magnifications of 10-times for overview and 60- and 120-times for more detailed analysis.

Data set [2] concerns the target T1, tau monomers (tau-441, 2N4R) (Homo sapiens, UniProt P10636).
T1 construct: Full lengths tau protein expression and purification; made in house
The experiment in a line: ELISA binding of FAM-labeled peptides to tau monomers. As to conditions: 20 μg/mL FAM-labeled peptide; for Binding to tau monomers (ELISA, in words): 5 μg/mL tau monomers coated, HRP anti-FITC detection; for ELISA signal, ranking among peptides: tau monomers and fibrils. How it is done:
(§1) Tau protein [tau-441 (2N4R) MW 45.9 kDa], purified as described in the main text, was used to prepare tau fibrils, the preparation of the fibrils was performed according to Barghorn et al. with slight modifications: 30 µM tau protein were incubated for 48 hours with 20 µM heparin MW ≈ 5000 (Fisher scientific, Schwerte, Germany) in phosphate-buffered saline (PBS) pH 7.4 at room temperature.
(§2) Polystyrene 96-well microtiter plates (Greiner Bio-One GmbH, Frickenhausen, Germany) were coated with 100 µL/well of tau monomers or fibrils in concentration of 5 µg/mL respectively, followed by incubation for 1 hour at room temperature. As control, PBS pH 7.4 containing 1 % BSA (IgG free) (Roth, Karlsruhe, Germany) was used instead of tau protein solution. After washing three times with PBS-T (phosphate-buffered saline (pH 7.4) with (0.1 %) Tween 20), and blocking for 1 h at room temperature with 1 % BSA (IgG free) (Roth, Karlsruhe, Germany) in PBS, the plate was washed three times with PBS-T. Then the peptides APT-Lys(FAM)-NH2, KNT-Lys(FAM)-NH2, LPS-Lys(FAM)-NH2, TD28-Lys(FAM)-NH2, TD28rev-Lys(FAM)-NH2 as well as d-TLKIVW-Lys(FAM)-NH2 (JPT Peptide Technologies, Berlin, Germany) were dissolved in PBS-T and added at 100 µL/well in concentration of 20 µg/mL, respectively, the plate was allowed to react for 1 h at room temperature in the dark. Subsequently, the plate was washed 3 times with PBS-T, horseradish peroxidase-conjugated sheep anti-FITC secondary antibodies (Bio-Rad, Muenchen, Germany) were diluted 1:5000 in PBS-T; the antibodies were incubated on the plate 1 h at room temperature. After incubation, the plate was washed 3 times with PBS-T. Subsequently, the substrate solution was prepared as follows: 10 mg of 3,3',5,5'-tetramethylbenzidine (TMB) (Roth, Karlsruhe, Germany) was dissolved in 1 ml dimethylsulfoxide (DMSO), 62 µL from TMB solution were mixed with 9 mL distilled water, 1 mL 1 M sodium acetate buffer (pH 6) and 10 µL 3 % hydrogen peroxide. 100 µL of the prepared substrate solution were transferred to the according wells. Finally, the reaction was stopped with 100 µL/well of 20 % H2SO4, and the plate was read at 450 nm (Multiskan GO, Thermo scientific, Germany).
(In general: ELISA stands for enzyme-linked immunosorbent assay.)

The target in data set [3] is T2, tau fibrils (tau-441, 2N4R, heparin induced) (Homo sapiens, UniProt P10636).
T2 construct: Full lengths tau protein expression and purification; made in house
T2 sequence (P10636 1-441 isoform P10636-8): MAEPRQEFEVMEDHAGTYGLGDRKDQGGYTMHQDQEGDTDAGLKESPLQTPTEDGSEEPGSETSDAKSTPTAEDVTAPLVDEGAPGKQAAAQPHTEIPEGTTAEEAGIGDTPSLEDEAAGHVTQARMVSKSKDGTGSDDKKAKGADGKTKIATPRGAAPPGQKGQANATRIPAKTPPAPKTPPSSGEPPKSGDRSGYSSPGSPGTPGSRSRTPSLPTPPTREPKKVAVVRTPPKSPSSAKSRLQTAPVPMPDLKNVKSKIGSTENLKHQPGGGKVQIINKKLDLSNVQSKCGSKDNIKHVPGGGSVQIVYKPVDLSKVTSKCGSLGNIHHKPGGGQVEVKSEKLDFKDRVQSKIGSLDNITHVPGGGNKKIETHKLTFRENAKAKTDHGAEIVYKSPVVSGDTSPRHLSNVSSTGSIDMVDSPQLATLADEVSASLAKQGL
The experiment in a line: ELISA binding of FAM-labeled peptides to tau fibrils. The conditions noted are these: 5 μg/mL tau fibrils coated, 20 μg/mL FAM-labeled peptide, HRP anti-FITC detection. How it is done:
as §1, §2

Another data set addresses tau (Homo sapiens). The conditions noted are these: cited from earlier work.
The target of data set [4] is tau^3RD (three repeat domain construct of tau protein, K19) (human).
Chain of tau^3RD (three repeat domain construct of tau protein, K19) (human) (P10636 other isoform, or with tags, fused parts or gaps): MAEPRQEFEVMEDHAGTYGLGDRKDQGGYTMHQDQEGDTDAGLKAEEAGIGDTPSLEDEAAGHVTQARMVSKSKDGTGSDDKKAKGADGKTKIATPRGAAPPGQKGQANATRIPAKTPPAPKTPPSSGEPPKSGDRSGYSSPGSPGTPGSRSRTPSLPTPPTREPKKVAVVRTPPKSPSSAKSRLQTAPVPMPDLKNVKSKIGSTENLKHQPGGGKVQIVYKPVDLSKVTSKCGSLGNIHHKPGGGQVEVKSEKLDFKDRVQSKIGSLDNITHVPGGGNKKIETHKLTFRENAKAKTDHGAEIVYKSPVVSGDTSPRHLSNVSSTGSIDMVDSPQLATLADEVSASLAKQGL
[5] abbreviates: 60 μM FAM labeled peptide, N2aTau^4RDΔK280 cells, fixed cells, confocal microscope, FAM fluorescence.
Setting [6] is: 60 μM FAM labeled peptide, N2aTau^4RDΔK280 cells, fixed cells, confocal microscope, FAM fluorescence, nuclei stained with TOPRO3.

Square brackets hold non-standard residues; d marks the D form. Ends that are not written are not given here. * marks the point of attachment. 6FAM = O=C1OC2(c3ccc(O)cc3Oc3cc(O)ccc32)c2cc(C(=O)*)ccc21

T1 sequence (P10636 1-441 isoform P10636-8): as the sequence (P10636 1-441 isoform P10636-8) above

With “TD28-Lys(FAM)-NH2: TD28 with 6-Carboxyfluorescein (FAM) label linked via a C-terminal lysine ([dT][dT][dS][dL][dQ][dM][dR][dL][dY][dY][dP][dP]K(6FAM)-NH2; N-terminus assumed; SMILES CSCC[C@@H](NC(=O)[C@@H](CCC(N)=O)NC(=O)[C@@H](CC(C)C)NC(=O)[C@@H](CO)NC(=O)[C@H](NC(=O)[C@H](N)[C@H](C)O)[C@H](C)O)C(=O)N[C@H](CCCNC(=N)N)C(=O)N[C@H](CC(C)C)C(=O)N[C@H](Cc1ccc(O)cc1)C(=O)N[C@H](Cc1ccc(O)cc1)C(=O)N1CCC[C@@H]1C(=O)N1CCC[C@@H]1C(=O)N[C@@H](CCCCNC(=O)c1ccc2c(c1)C1(OC2=O)c2ccc(O)cc2Oc2cc(O)ccc21)C(N)=O)”, in data set [1] (setting [5]), the “Cell penetration: cytosol, 2 hours incubation” value is recorded as “+”; the “Cell penetration: cytosol, 4 days incubation” value was “+”; the “Cell penetration: membrane, 2 hours incubation” value is given as “+”; the “Cell penetration: membrane, 4 days incubation” value is “+”. In data set [1] (setting [6]), the “Cell penetration: nuclei, 4 days incubation” value was “+”. Further, in data set [2], the “Binding to tau monomers (ELISA, in words)” value (shortened to “Binding to tau monomers”) is given as “binding could be demonstrated” and the “ELISA signal, ranking among peptides” value was “highest”. The “Binding to tau fibrils (ELISA, in words)” value in data set [3] is listed as “binding could be demonstrated”.

The Kd is the concentration at which binding is half-saturated. As to D-peptide D-TLKIVW, the Kd in the data set with tau (Homo sapiens) was 2000 nM.

Consider “KNT-Lys(FAM)-NH2: KNT with 6-Carboxyfluorescein (FAM) label linked via a C-terminal lysine ([dK][dN][dT][dP][dQ][dH][dR][dK][dL][dR][dL][dS]K(6FAM)-NH2; N-terminus assumed; SMILES CC(C)C[C@@H](NC(=O)[C@@H](CCCNC(=N)N)NC(=O)[C@@H](CC(C)C)NC(=O)[C@@H](CCCCN)NC(=O)[C@@H](CCCNC(=N)N)NC(=O)[C@@H](Cc1c[nH]cn1)NC(=O)[C@@H](CCC(N)=O)NC(=O)[C@H]1CCCN1C(=O)[C@H](NC(=O)[C@@H](CC(N)=O)NC(=O)[C@H](N)CCCCN)[C@H](C)O)C(=O)N[C@H](CO)C(=O)N[C@@H](CCCCNC(=O)c1ccc2c(c1)C1(OC2=O)c2ccc(O)cc2Oc2cc(O)ccc21)C(N)=O)”, for which, in data set [1] (setting [5]), the “Cell penetration: cytosol, 2 hours incubation” value is listed as “+”; the “Cell penetration: cytosol, 4 days incubation” value is recorded as “+”; the “Cell penetration: membrane, 2 hours incubation” value was “+”; the “Cell penetration: membrane, 4 days incubation” value is “+”. Besides, in data set [2], the “Binding to tau monomers” value is reported as “binding could be demonstrated” and the “ELISA signal, ranking among peptides” value was “highest”. For the same molecule, the “Binding to tau fibrils (ELISA, in words)” value in data set [3] was “binding could be demonstrated”.

Take “APT-Lys(FAM)-NH2: APT with 6-Carboxyfluorescein (FAM) label linked via a C-terminal lysine ([dA][dP][dT][dL][dL][dR][dL][dH][dS][dL]G[dA]K(6FAM)-NH2; N-terminus assumed; SMILES CC(C)C[C@@H](NC(=O)[C@@H](CO)NC(=O)[C@@H](Cc1c[nH]cn1)NC(=O)[C@@H](CC(C)C)NC(=O)[C@@H](CCCNC(=N)N)NC(=O)[C@@H](CC(C)C)NC(=O)[C@@H](CC(C)C)NC(=O)[C@H](NC(=O)[C@H]1CCCN1C(=O)[C@@H](C)N)[C@H](C)O)C(=O)NCC(=O)N[C@H](C)C(=O)N[C@@H](CCCCNC(=O)c1ccc2c(c1)C1(OC2=O)c2ccc(O)cc2Oc2cc(O)ccc21)C(N)=O)”: in data set [1] (setting [5]), the “Cell penetration: cytosol, 4 days incubation” value is listed as “+”; the “Cell penetration: membrane, 2 hours incubation” value was “+”; the “Cell penetration: membrane, 4 days incubation” value was “+”. For the same molecule, the “Cell penetration, overall judgement (in words)” value in data set [1] (60 μM FAM-labeled peptide, N2a cells, up to 4 days) is “worst cell penetration properties”. For the same molecule, the “Binding to tau monomers” value in data set [2] is given as “binding could be demonstrated”. Also, the “Binding to tau fibrils (ELISA, in words)” value in data set [3] is “binding could be demonstrated”.

On to “TD28rev-Lys(FAM)-NH2: TD28rev with 6-Carboxyfluorescein (FAM) label linked via a C-terminal lysine ([dP][dP][dY][dY][dL][dR][dM][dQ][dL][dS][dT][dT]K(6FAM)-NH2; N-terminus assumed; SMILES CSCC[C@@H](NC(=O)[C@@H](CCCNC(=N)N)NC(=O)[C@@H](CC(C)C)NC(=O)[C@@H](Cc1ccc(O)cc1)NC(=O)[C@@H](Cc1ccc(O)cc1)NC(=O)[C@H]1CCCN1C(=O)[C@H]1CCCN1)C(=O)N[C@H](CCC(N)=O)C(=O)N[C@H](CC(C)C)C(=O)N[C@H](CO)C(=O)N[C@@H](C(=O)N[C@@H](C(=O)N[C@@H](CCCCNC(=O)c1ccc2c(c1)C1(OC2=O)c2ccc(O)cc2Oc2cc(O)ccc21)C(N)=O)[C@H](C)O)[C@H](C)O)”, for which, in data set [1] (setting [5]), the “Cell penetration: cytosol, 2 hours incubation” value was “+”; the “Cell penetration: cytosol, 4 days incubation” value is on record as “+”; the “Cell penetration: membrane, 2 hours incubation” value is “+”; the “Cell penetration: membrane, 4 days incubation” value is on record as “+”. In addition, in data set [1] (setting [6]), the “Cell penetration: nuclei, 2 hours incubation” value is listed as “+” and the “Cell penetration: nuclei, 4 days incubation” value is recorded as “+”. In addition, the “Binding to tau monomers” value in data set [2] was “binding could be demonstrated”. The “Binding to tau fibrils (ELISA, in words)” value in data set [3] is given as “binding could be demonstrated”.

The molecule TTSLQMRLYYPP [TL28] displayed a half maximal effect concentration, inhibition of tau^3RD (K19) fibril formation (K19 with K19), ThS fluorescence in vitro in data set [4] of over 200 µM.
